{"source": "paper PMC4570970", "proteins": {"B1": {"name": "5-epi-aristolochene synthase (TEAS) (Nicotiana tabacum) (protein)", "chain": "MASAAVANYEEEIVRPVADFSPSLWGDQFLSFSIKNQVAEKYAKEIEALKEQTRNMLLATGMKLADTLNLIDTIERLGISYHFEKEIDDILDQIYNQNSNCNDLCTSALQFRLLRQHGFNISPEIFSKFQDENGKFKESLASDVLGLLNLYEASHVRTHADDILEDALAFSTIHLESAAPHLKSPLREQVTHALEQCLHKGVPRVETRFFISSIYDKEQSKNNVLLRFAKLDFNLLQMLHKQELAQVSRWWKDLDFVTTLPYARDRVVECYFWALGVYFEPQYSQARVMLVKTISMISIVDDTFDAYGTVKELEAYTDAIQRWDINEIDRLPDYMKISYKAILDLYKDYEKELSSAGRSHIVCHAIERMKEVVRNYNVESTWFIEGYTPPVSEYLSNALATTTYYYLATTSYLGMKSATEQDFEWLSKNPKILEASVIICRVIDDTATYEVEKSRGQIATGIECCMRDYGISTKEAMAKFQNMAETAWKDINEGLLRPTPVSTEFLTPILNLARIVEVTYIHNLDGYTHPEKVLKPHIINLLVDSIKI"}}, "substrate": "CC(C)=CCC/C(C)=C/CC/C(C)=C/CO[P@@](=O)(O)OP(=O)(O)O", "experiment": "purified protein", "settings": "Mg2+ active site", "data": [{"protein": "B1", "values": [{"measurement": "Km", "value": 4.47, "unit": "µM"}]}]}
